We go through one molecule from paper PMC6349032.

In the data set the target is GD-FXaS195A (Gla-domainless factor Xa, catalytically inactive) (UniProt P00742;P00742 85-179;235-488, S419A). Nature of the data set: X-ray crystallography.
Chain of GD-FXaS195A (Gla-domainless factor Xa, catalytically inactive) (P00742 85-179, chain 1 of 2): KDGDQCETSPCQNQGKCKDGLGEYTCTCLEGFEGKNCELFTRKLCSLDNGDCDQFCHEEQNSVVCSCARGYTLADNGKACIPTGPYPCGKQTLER
Chain of GD-FXaS195A (Gla-domainless factor Xa, catalytically inactive) (P00742 235-488 S419A, chain 2 of 2): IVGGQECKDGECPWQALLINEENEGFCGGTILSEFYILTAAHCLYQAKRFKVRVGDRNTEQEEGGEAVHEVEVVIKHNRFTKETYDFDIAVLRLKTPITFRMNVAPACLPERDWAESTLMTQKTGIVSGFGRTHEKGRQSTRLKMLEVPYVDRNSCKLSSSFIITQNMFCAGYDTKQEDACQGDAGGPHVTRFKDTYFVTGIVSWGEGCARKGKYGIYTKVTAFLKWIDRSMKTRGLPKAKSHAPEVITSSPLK

Consider GAGAGCCCCAGCGAGAUAAUACUUGGCCCCGCUCUU (structured_RNA, all C are 2'-fluoro-C and all U are 2'-fluoro-U; purines A/G as ribonucleotides) [11F7t], for which the binding result is “binds”.
